Key:
[1] = target: amyloid peptide AβpE3-42 (UniProt P05067); test: ELISA, plate coated with AβpE3-42, antibody titrated, signal as % Max
[2] = target: amyloid peptide Aβ1-42 (UniProt P05067); test: ELISA, plate coated with Aβ1-42 (target by legend paragraph 23), antibody titrated, signal as % Max
amyloid peptide Aβ1-42, sequence (P05067 672-713 limits assumed): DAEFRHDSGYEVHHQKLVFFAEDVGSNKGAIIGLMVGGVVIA

amyloid peptide AβpE3-42, sequence (P05067 674-713 limits assumed): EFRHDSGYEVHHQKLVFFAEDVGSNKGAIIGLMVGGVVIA

- EC50 [1]: 0.15 µg/mL
- EC50 [2]: 0.22 µg/mL
Substance: Solineuzumab (antibody)

— US20210347867A1
